One assay deals with GST-MYC(1-263) (human). The assay can be described thus: pull-down + cross-linking.
Assay [1] deals with GST-MYC(2-108) E[54,100]A (human). Briefly: pull-down.
The target in a further assay is GST-MYC 1-98 (human). Briefly: pull-down.
Assay [2] deals with GST-MYC(2-108) E100A (human). Briefly: pull-down.
The target in assay [3] is GST-MYC(2-108) E54A (human). The assay can be described thus: pull-down.

This passage reports percent of the protein in the extract crosslinked, percent reduction of GCN5 binding against wt GST-MYC(2-108) and percent reduction of GCN5 binding on deletion of residues 99-108 results from PMC4039629.

In the case of “GCN5 acetyltransferase, endogenous in HeLa cells (from UniProt Q92830 1-837) (enzyme)”, the percent of the protein in the extract crosslinked in the assay with GST-MYC(1-263) (human) was determined as 1%.

Turning to “purified recombinant human GCN5-S (pRSETA-His6-GCN5-S) (enzyme)”, the percent reduction of GCN5 binding against wt GST-MYC(2-108) in assay [1] worked out at 50%; in assay [2], 20%; in assay [3], 40%. Moreover, the percent reduction of GCN5 binding on deletion of residues 99-108 in the assay with GST-MYC 1-98 (human) worked out at 90%.

With “transcription/transformation-associated protein (TRRAP), endogenous in HeLa cells (from UniProt Q9Y4A5 1-3859) (natural protein)”, in the assay with GST-MYC(1-263) (human), the percent of the protein in the extract crosslinked worked out at 1%.
